± gives the standard deviation of the averaged measurements.
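Note: ATP exposure 15 min at 22 °C before imaging.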

This series concerns ATP. The experiment in a line: switch fluorescence ratio, 500 uM ATP over buffer (Cy3 cluster intensity, sum of 5 cycles each) (fold (ratio)); higher = stronger signal-on switching upon ATP binding; sequences stand for … in TCGTCGGCAGCGTCAGATGTGTATAAGAGACAGTTTTTTTTTTTTTTTTTTTTTTTTT…TC. The conditions noted are these: aptamer strand: ATP DNA aptamer (quencher-CACCTGGGGGAGTATTGCGGAGGAAGG + anchor), 100 nM annealed; ATP concentration: 500 uM. The method in brief:
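The quencher-labelled ATP aptamer, at 100 nM, was annealed to Cy3-labelled switching-strand clusters on a modified Illumina MiSeq flow-cell. The clusters were imaged in selection buffer, then after 15 min with 500 uM ATP at 22 °C, and this buffer/ATP cycle ran five times with NaOH stripping and re-annealing between runs. Per-cluster fluorescence ratios, summed target-cycle over summed buffer-cycle Cy3 intensity, were averaged per switch-domain sequence. Clusters outside 100-1000 RFU were excluded.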
As to GGTTCATGTG, the switch fluorescence ratio was 1.01 ± 0.015.

As to CAGCGGGGGG, the switch fluorescence ratio came out at 1.01 ± 0.034.

Regarding ATGTCTAAAA, the switch fluorescence ratio worked out at 0.9887 ± 0.0065.

As for TGTCGTAATT, the switch fluorescence ratio came out at 1 ± 0.011.

With TTAGATTACG, the switch fluorescence ratio is 0.998 ± 0.021.

Consider TAAAGTGCGG, for which the switch fluorescence ratio came out at 1.03 ± 0.058.

Turning to TGGGGCGGGG, the switch fluorescence ratio came out at 0.983 ± 0.018.

On to ATGGTCTCTT, for which the switch fluorescence ratio turned out to be 0.987 ± 0.013.

With TGGATCTGCG, the switch fluorescence ratio turned out to be 1.01 ± 0.023.

For the sequence ACGTGTGCGG, the switch fluorescence ratio is 0.959 ± 0.031.

Turning to GGGGAACAGG, the switch fluorescence ratio came to 1.05 ± 0.06.

Consider GGGTGAGTGG, for which the switch fluorescence ratio was found to be 1.01 ± 0.021.

TCAAATGAAT: the switch fluorescence ratio turned out to be 0.994 ± 0.05.

For CATAGGTAAG, the switch fluorescence ratio was 0.9837 ± 0.0022.

Take AAAATTTATT: the switch fluorescence ratio was 0.989 ± 0.018.

TCCCTCTCCG: the switch fluorescence ratio turned out to be 1.27 ± 0.36.

For AGAGTATGG, the switch fluorescence ratio is 0.965 ± 0.035.

With GAAAAAGTGC, the switch fluorescence ratio turned out to be 0.989 ± 0.095.

Take GAGTACGTTA: the switch fluorescence ratio worked out at 1.16 ± 0.013.

Turning to ATGATTTGGC, the switch fluorescence ratio was 1.04 ± 0.048.

Take GAACGTGGTA: the switch fluorescence ratio was determined as 0.9936 ± 0.0038.

Take TGTTGATAGT: the switch fluorescence ratio came to 1 ± 0.023.

Regarding GGGGGGTGGT, the switch fluorescence ratio was 0.978 ± 0.025.

Take GCCGGAAGGC: the switch fluorescence ratio stood at 0.98 ± 0.076.

With ATTTCGGTTG, the switch fluorescence ratio was 0.989 ± 0.026.

Regarding AAGTGTCATT, the switch fluorescence ratio worked out at 0.9999 ± 0.0028.

For the sequence AGGTCTATTT, the switch fluorescence ratio is 1.008 ± 0.0024.

Turning to TGTGTTATGG, the switch fluorescence ratio came out at 0.968 ± 0.049.

Regarding TGTTTAGGGT, the switch fluorescence ratio amounted to 0.997 ± 0.029.

As to AATAAGGTTA, the switch fluorescence ratio is 0.984 ± 0.022.

Turning to AATGGTACGA, the switch fluorescence ratio was found to be 1 ± 0.035.

As to TCGTGTACGC, the switch fluorescence ratio was determined as 1 ± 0.023.

In the case of GCAAGAGGGG, the switch fluorescence ratio amounted to 1.06 ± 0.039.

With AGTGTCACGA, the switch fluorescence ratio came out at 1.01 ± 0.015.

CGAGGGGAAG: the switch fluorescence ratio came out at 0.992 ± 0.022.

As for ACAGAAGGGG, the switch fluorescence ratio was 1.02 ± 0.012.

With GCTTAACGCT, the switch fluorescence ratio amounted to 0.999 ± 0.019.

Consider ACGGGAAAGT, for which the switch fluorescence ratio was determined as 1.06 ± 0.089.

As to TGGAAAAGCG, the switch fluorescence ratio was determined as 0.976 ± 0.012.

For the sequence TGAGTAGGGC, the switch fluorescence ratio was 0.948 ± 0.041.

For the sequence TACGTATAAT, the switch fluorescence ratio is 1.15 ± 0.015.

In the case of CGGGGGTTGG, the switch fluorescence ratio was determined as 0.999 ± 0.025.

In the case of ATTCAGGTGT, the switch fluorescence ratio was determined as 2.66 ± 0.29.

Turning to GTTTACTTAG, the switch fluorescence ratio was 1.024 ± 0.005.

For the sequence TAAGACCAGT, the switch fluorescence ratio came out at 0.981 ± 0.034.

In the case of TTACACTGTG, the switch fluorescence ratio was 1.001 ± 0.0054.

In the case of AGGAAGGG, the switch fluorescence ratio amounted to 1.0069 ± 0.00083.

As for ACCGTTACTT, the switch fluorescence ratio was found to be 1.24 ± 0.065.

For TTTAGGGGG, the switch fluorescence ratio was 1.04 ± 0.067.

As to TTTCTGGCGG, the switch fluorescence ratio came to 1.02 ± 0.025.

Consider ATCGTAAGGA, for which the switch fluorescence ratio turned out to be 1.02 ± 0.046.

In the case of TGGGTAAGGA, the switch fluorescence ratio came out at 1 ± 0.026.

For TGCTATTGGT, the switch fluorescence ratio stood at 1.03 ± 0.035.

TTATACTGGG: the switch fluorescence ratio is 0.992 ± 0.012.

As for GCTATTATTT, the switch fluorescence ratio worked out at 0.9845 ± 0.0027.

As to TTGGGCTCTA, the switch fluorescence ratio came out at 1.002 ± 0.0012.

For the sequence TGGGAAGGTA, the switch fluorescence ratio was 0.999 ± 0.029.

Regarding TTTCGGGATG, the switch fluorescence ratio was determined as 1.01 ± 0.066.

Regarding AGTTTTAGCC, the switch fluorescence ratio was 1 ± 0.027.

Consider CGTTGGTGCG, for which the switch fluorescence ratio was 0.98 ± 0.059.

For CCAGTGGCTA, the switch fluorescence ratio turned out to be 1.016 ± 0.0033.

On to AAGAGGTTAC, for which the switch fluorescence ratio turned out to be 0.973 ± 0.049.

With ATGTGGATTG, the switch fluorescence ratio is 1.016 ± 0.009.

Take CAGGGGATAT: the switch fluorescence ratio stood at 0.993 ± 0.046.

TGCTTGTTCG: the switch fluorescence ratio is 1.029 ± 0.0097.

Turning to CGTAGGTATG, the switch fluorescence ratio is 0.983 ± 0.023.

Turning to TGGGGACGTT, the switch fluorescence ratio came to 0.971 ± 0.056.

The values above are taken from the supplement of paper PMC10126150.
